Biological target: neonatal Fc receptor FcRn (FcRn-SmBiT) (UniProt P55899 24-297)
Experiment: competition with IgG-LgBiT tracer (Lumit FcRn assay)

IC50	Binder
19.5 µg/mL	S15-FX (Fc fusion, N-linked glycan at Asn297 devoid of core α-1,3-fucose and β-1,2-xylose; predominantly complex GnGn (52%–54%) and M5-M9 high mannose type (22%–24%); ~15% unglycosylated sites) chain 1: QVQLLESGGGLVQPGGSLRLSCAASGFTFSSYAMSWVRQAPGKGLEWASAISGSGGSTYYADSVEGRFTISRDNSKNTLYLQMNSLRAEDTAVYYCAKDTGYCGDDCYIKLIRGGPDYWGQGTLVTVSS chain 2: DIVMTQSPLSLPVTLGQPASISCRSSQSLVYSDGNTFLNWFQQRPGQSPRRLIYQVSNRDSGVPDRFSGSGSGTDFTLKISRVEAEDVGVYYCMQGTHWPRTFGQGTKLEIK
32.8 µg/mL	S15 (plant-produced COVA2-15, single-chain (sc)Fv-Fc format) (Fc fusion, N-linked glycan at Asn297, major glycoforms complex type with α-1,3 fucose and β-1,2-xylose (GnGnXF)) chain 1: QVQLLESGGGLVQPGGSLRLSCAASGFTFSSYAMSWVRQAPGKGLEWASAISGSGGSTYYADSVEGRFTISRDNSKNTLYLQMNSLRAEDTAVYYCAKDTGYCGDDCYIKLIRGGPDYWGQGTLVTVSS chain 2: DIVMTQSPLSLPVTLGQPASISCRSSQSLVYSDGNTFLNWFQQRPGQSPRRLIYQVSNRDSGVPDRFSGSGSGTDFTLKISRVEAEDVGVYYCMQGTHWPRTFGQGTKLEIK
8.58 µg/mL	S15-HDEL (Fc fusion, N-linked glycan at Asn297: 88%–92% high-mannose-type N-glycans, less than 2% with α-1,3-fucose and β-1,2-xylose) chain 1: QVQLLESGGGLVQPGGSLRLSCAASGFTFSSYAMSWVRQAPGKGLEWASAISGSGGSTYYADSVEGRFTISRDNSKNTLYLQMNSLRAEDTAVYYCAKDTGYCGDDCYIKLIRGGPDYWGQGTLVTVSS chain 2: DIVMTQSPLSLPVTLGQPASISCRSSQSLVYSDGNTFLNWFQQRPGQSPRRLIYQVSNRDSGVPDRFSGSGSGTDFTLKISRVEAEDVGVYYCMQGTHWPRTFGQGTKLEIK
11.8 µg/mL	S15-YTE (Fc fusion, N-linked glycan at Asn297, absent in a larger percentage (>10%) of antibodies) chain 1: QVQLLESGGGLVQPGGSLRLSCAASGFTFSSYAMSWVRQAPGKGLEWASAISGSGGSTYYADSVEGRFTISRDNSKNTLYLQMNSLRAEDTAVYYCAKDTGYCGDDCYIKLIRGGPDYWGQGTLVTVSS chain 2: DIVMTQSPLSLPVTLGQPASISCRSSQSLVYSDGNTFLNWFQQRPGQSPRRLIYQVSNRDSGVPDRFSGSGSGTDFTLKISRVEAEDVGVYYCMQGTHWPRTFGQGTKLEIK
